A short description of the data set: yeast display, Sf9 membrane polyspecificity reagent, FACS + sequencing; frameworks hold sequencing errors. Put shortly: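 A synthetic nanobody library was expressed on Saccharomyces cerevisiae BJ5465 by galactose induction for 36–48 hours. The library was stained for 1 hour at 4 °C with 10% biotinylated, detergent-solubilized Sf9 membrane reagent and enriched with streptavidin microbeads before FACS. Low and high (top ~1%) gates were set on anti-HA fluorescence for expression and streptavidin fluorescence for reagent binding, and each polyreactivity label reflects the gate of origin.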
Turning to “QVPRVESGGGLVQAGGSLRLSCAASGFTFRFYDMGWYRQARGNERELVAAISWSGTSTYYADSVKGRFTISRDNAKNTVYLQMNSLKPEETAVYYCAADIIGYEFDYWGQGTQVTVSS”, the “polyreactivity (PSR sort gate)” value is “high polyreactivity”.

Turning to “QVQFVDSGAGLVQAGGSLRLSCAASGSTLTTNAMGWYRQAPGKERELVAAISWRGGPTYYADSVKGRFTISRDIAKNTVYLQMNSLKPEDTAVYYCAADYTRSAYDYWGQGTQVTVSS”, the “polyreactivity (PSR sort gate)” value is given as “high polyreactivity”.

On to “QVQHEDSGGGLVQAGGSLRLSCAASGRIFSFYTMGWYRQAPGKERELVAAISGSGGSTYYADSVKGRFTISRDNAKNTVYLQMNSLKPEDTAVYYCARRRQRGGVNYWGQGTQVTVSS”, for which the “polyreactivity (PSR sort gate)” value was “high polyreactivity”.

As for “QVQHEESGGGLDQPGGSLRLTCAASGRIFNGYKMGWYRKAPGKETEFVDTISRSGGSTYYADSVKGRFTISRDNAKNSVYLQMNSLKPEDTAVYYCAKSYPDKWEYDYWGQGTQVTVSS”, the “polyreactivity (PSR sort gate)” value is recorded as “low polyreactivity”.

As for “QVQHEESGGGLVQAGGSLRLSCAASGIIFYYYALGWYRQAPGKERELVAAITGTGSRTYYADSVKGRFTISRDNAKNTVYLQMNSLKPEDTAVYYCNARSFATGSKVPARGYWGHGTQVTVSS”, the “polyreactivity (PSR sort gate)” value is on record as “high polyreactivity”.

For the sequence “QVQHEESGRALVQAGGSLRLSCPPSGTTGIYAIGWYRQAPGKERELVAAITRRAGSTYYADSVKGRFTISRDNAKNRVYLLMTSLKPEDTAVYDCNATRGTATAYYYRWAGGYWGQGTQVTVSS”, the “polyreactivity (PSR sort gate)” value is listed as “low polyreactivity”.

For the sequence “QVQHEESGRGLVQAGGSLRLSCAASGINCVYYAMGCYRQAPGKERELVAAISKNGGSTYYADSVKGRFTISRDNAYNTVYLQMNSLKPEDTAVYYCAAEEGYRWVRYNYWGQGTQVTVSS”, the “polyreactivity (PSR sort gate)” value is recorded as “high polyreactivity”.

“QVQHLESGGGLVQAGGSLRLSCVASGLTQPYAMRWYRQAPGKERQLVAAITGGDGSTTYADSVKGRFTISRVNAKNTVYLQMNSLKPEDTAVYYCNADTARKYAESQFYHWGQGTQVSVSS”: the “polyreactivity (PSR sort gate)” value is listed as “low polyreactivity”.

On to “QVQHLESGGGLVQAGRSLRLSCAASGSTFITNTMGWYIKATGKERELLAAISKSGGSTYYADSVKGRFTISRDNAKNTVYLQMNSLKPEDTAVYYCAADIYVRDRGVKYDYWGQGTQVTVSS”, for which the “polyreactivity (PSR sort gate)” value was “low polyreactivity”.

Take “QVQHVDSGGGLVQARGTLRLSCSASGRNFGIYTMGWYRQPPVKERELVAAISWRGGSTYYADSVKGRFTISRDNAKNTVYFQLNSLKPEDTAVYYCGKTQPGWRPVRDQIRYGYWGQGTQVTVSA”: the “polyreactivity (PSR sort gate)” value is given as “high polyreactivity”.

Regarding “QVQHVDSGGGLVQEGGSLRLICAASGSIFEQYTMGWYIQAPGKERELVAAISRRSGRTYYADSVKGRFTISRDNAKNTVYLQMNSLKPADTAVYYCAAQHAIYRNPGLDDYWGQGTQVTVSS”, the “polyreactivity (PSR sort gate)” value is “high polyreactivity”.

“QVQHVESAAGLVQAGGSLRLTCAASGSIFRVYTMGWSRQAPGKERELVAAISRSGGRTYYADSVKGRFTISRDNAKNTVYLQMNSLKPEDTAVYYCAKRGRVTYPYYYWGQGTQVTVSS”: the “polyreactivity (PSR sort gate)” value is recorded as “high polyreactivity”.

Take “QVQHVESAGGLVQAGGILRLSCAASGSTFVGNAMGWYRQAPGKEREWVATISNSGGRTDYADSVKGRFTISRDNAKNTVYLQMNSLKPEDTAVYYCAADHPAFGPGYSFDYWGQGTQVTVSS”: the “polyreactivity (PSR sort gate)” value is “low polyreactivity”.

Consider “QVQHVESAGGLVQAGGSLRLSCAASARTFRYYAMGWYRQSPGKERELVAAINYSGGRTYYADSVKGRFTISRDNAKITVYLQMNSLNPEDTAVYYCNAVLGSYLPKFDYWGQGTQVTVSS”, for which the “polyreactivity (PSR sort gate)” value is “high polyreactivity”.

Take “QVQHVESARGLVHAGGSLRLSCAASGGTFQYYAMGLSRQAPGKERELVAAISSSGSTYYADSVKGRFTISRDNAKNTVYLQMNSLKPEDTAVYYCAAGHISIYYYTFYYWGQGTQVTVSS”: the “polyreactivity (PSR sort gate)” value is “high polyreactivity”.

Consider “QVQHVESGAGLVQAAGSLRLSCAASGSTFSSYALGWYRQAPGKERELVAAISHGDSTYYADSVKGRFTISRDNAKNTVYLQMNSLKPEDSAVYYCAALHEVWGVDYWGQGTHVTVSS”, for which the “polyreactivity (PSR sort gate)” value is “low polyreactivity”.

With “QVQHVESGARLVQAGGSLRLSCAASGHIFFDYTMGWSRQAPGKERELVAGITIGGSTNYADSVKGRFTISRDNAKNTVYLQMNSLKPEDTAVYYCNVVKYVYIYSYWEYYYWGQGTQVTVSS”, the “polyreactivity (PSR sort gate)” value is recorded as “low polyreactivity”.

Regarding “QVQHVESGGALVKAGGSLRIRCAASGITFSKYAMGWYRQAPGKEMELVAAITRSGGSTYYADSVKGRFTISRDNGKNTVYLQMNSLKPEDTAVYSCIARGYFTGGDGGSGYWGQVTQVTVSS”, the “polyreactivity (PSR sort gate)” value is “high polyreactivity”.

Take “QVQHVESGGALVQAGGSLRLSCAASGSTFTRNAMGWDRHAPGKERELVAAITSSGTSTYYADSVKGRFTISRDNAKNTVYLQMNSLKPEATAVYYCAAGIQSTYPKGGYRVTYYYWGQGTQVTVSS”: the “polyreactivity (PSR sort gate)” value was “high polyreactivity”.

For “QVQHVESGGCLDQAGGSLRLSCAASGIFRTNARGWYRTAPGKERELVAGISSGGGTNYADSVKGRFTISRDNAKNTVYLQMNSLKPEDTAVYSCAKERIYFYYWYVYSDLVYEYDYCGQGTQVTVSS”, the “polyreactivity (PSR sort gate)” value is “low polyreactivity”.

For the sequence “QVQHVESGGGFVQAGGSLRLSCAASGITFYDYTMGWYRPAPGKERELVDAITSSGVSTYYADSVKGRFTISRDNAKKTVYLQMNSLKPEDTAVYYCATDAWSVYSYLAFTYDYWGQGTQVTVSS”, the “polyreactivity (PSR sort gate)” value is given as “low polyreactivity”.

On to “QVQHVESGGGIVQAGGSLRLSCAASGGIFGYYAMGWYRQAPGKEREFVATITRGGGSTYYADSVKGRFTISRDNAKNTVYLQMNSLKPEDSAVYYCNAKPSYYQRYIYWGQGTQVTVSS”, for which the “polyreactivity (PSR sort gate)” value is on record as “high polyreactivity”.

In the case of “QVQHVESGGGIVQAGGSLRLSCAASVRTIPYNAMGRYRQAPGKERELVAAISTGGSTNYADSVKGRFTISRDNAKNTVYLQMNSLKPEDTAVYYCNTRYRWARNWAYYYWGQGTQVTVSS”, the “polyreactivity (PSR sort gate)” value is on record as “high polyreactivity”.

On to “QVQHVESGGGIVQAGGSLRLTCAASGSTFGGNGMGWYRQAPGKEREFVATNTWRSVSTYYADSVKGRFTISRDNAKNTDFLQMISLKPEDTAVYYCAARLYRFASYRMDYWGQGTQVTVSS”, for which the “polyreactivity (PSR sort gate)” value is reported as “high polyreactivity”.

On to “QVQHVESGGGIVQAVGSLRLSCAASGSIFYYNAMGWYRQAPGKERELVAAISSGGSTYYADSVKGRFTISRDNAKNTVYLQMNSLKPEDTAVYYCAAKPAFRYLYSRYYPELGGYWGQGTQVTVSS”, for which the “polyreactivity (PSR sort gate)” value is on record as “high polyreactivity”.

With “QVQHVESGGGLFQAGGSLRLSCAASGRIFSYYAMGWYRQAPGKERELVAAINWNGGRTYYADSVKGRFTISRDNAKNSVYLQMNSLKPEDTAVYYCNARYSGKYDYWRQGTQVTVSS”, the “polyreactivity (PSR sort gate)” value is “high polyreactivity”.

For the sequence “QVQHVESGGGLLQAGGSLRLICAAYGSTFGTYAMGWYRQAPGKERELVATISIGGITYYADSVKGRFTNSRDNAKYTVYLQMNSLKPEVTAVYYCAKDVTDATSRSDPSGDDYWGQGTQVTVSS”, the “polyreactivity (PSR sort gate)” value is reported as “low polyreactivity”.

For “QVQHVESGGGLLQAGGSLRLSCAASGRIFYGNAMGWYRQATGKERELVAAILWRGGTTYYADSVKGRFTISRDNAMNTVYLLMISLKPEDTSDYNCTADEPYKYYYWGQGTQVTVSS”, the “polyreactivity (PSR sort gate)” value is listed as “low polyreactivity”.

On to “QVQHVESGGGLLQAGGSLRLSCAASGSIFYVYAMGWYRQAPGKERELVASISCGDSSTYYADSVKGRFTISRDNAKNTVYLQMNILIPEDTAVYYCAADDYRQYALYDYWGQGTHVTVSS”, for which the “polyreactivity (PSR sort gate)” value is listed as “low polyreactivity”.

For “QVQHVESGGGLVHAGGSLRLSCAASGLIFRNNAMVLYRQAPGTERELDASITSDGSTNYADSVKGRFRISRDNAKNSFYLQMNSLKPEDTAVYYCAADGYTYWYYQLIPDYDYWGQGTQVTVSS”, the “polyreactivity (PSR sort gate)” value is “low polyreactivity”.

“QVQHVESGGGLVHPGGILRLSCAASGLTFGRNAMGWYRQAPGKERELVAAISRSGGRTSYADSVKGRLTISRDNAKNTVYLQMNSLKPEDTAVYYCAARSPIYRTTYDYWGQGTQVTVSS”: the “polyreactivity (PSR sort gate)” value is listed as “high polyreactivity”.

Take “QVQHVESGGGLVQAGASLRLSCAASRRTFYRYAMGWSRQAPGKERELVAAISSGGSTNYADCVKGRFTISRDNAKNTVYLHMNRLKPEDTAVYYCAAETRLHRQDYDYWGQGTQVTVSS”: the “polyreactivity (PSR sort gate)” value is “low polyreactivity”.

“QVQHVESGGGLVQAGCSLRLSCAASGRIFKPYVMGWYRQAPGKETELVSAISWSGGASTYYADSVKGRFTISRDNAKNTVYLQMNSLKPEDTAVYYCAADPFTIPTSEFYYWGQGTQVTVSS”: the “polyreactivity (PSR sort gate)” value is “low polyreactivity”.

Regarding “QVQHVESGGGLVQAGCSLRLSCAASGRTFTYYAMGWYRQARGKESELVATISWRGSSTYYADSVKGRFTISRDNAKNTVYLQMNSLKPEDTAFYYCAARTYRWGYEDNYWGQGTQVTVSS”, the “polyreactivity (PSR sort gate)” value is on record as “high polyreactivity”.

As to “QVQHVESGGGLVQAGGSHRLSCAASGRTFDTNDMGWYRQPPGKERELVAVITARGGNTSYADSVKGRFTISRDNAKNPVYLQMNSLKPEDTAVYYCAAESQSTSYGLDYWGQGTQVTVSS”, the “polyreactivity (PSR sort gate)” value is “low polyreactivity”.

As to “QVQHVESGGGLVQAGGSLGLSCAASGRIFGVYAMGWYTQAPGKERELVAAIWSGGSTYYADSVKGRFTISRDNAKNTVYLQMNSLKPEDTAVYYCAADDAYSHRSLYSHNDYWGQGNQVTVSS”, the “polyreactivity (PSR sort gate)” value is reported as “low polyreactivity”.

For the sequence “QVQHVESGGGLVQAGGSLRLNCAASGSTFFGNAMGWYRQAPGKERELVAAISGSGGSTYYADSVKGRFTISRDNAKNTVYLQMNSLKPEDTAVYYCAKYYLTGLARYDYWGQGTQVTVSS”, the “polyreactivity (PSR sort gate)” value is “high polyreactivity”.

For the sequence “QVQHVESGGGLVQAGGSLRLSCAASGFIFGYYTMGWSRQAPGKERELVAAITSGDSTNYADSVKGRFTISRDNAKNTVYLQMNSLKPEDTAVYYCNARGLFTWMDYWGQGTQVTVSS”, the “polyreactivity (PSR sort gate)” value is “low polyreactivity”.

With “QVQHVESGGGLVQAGGSLRLSCAASGFTFHRYAMGWYRQAAGKERELVARISRSAGSTYYADSVKGRFTISRDNAKNTVYLQMNSLKPEDTAVYYCAAAQRRYGRGYGYWGQGTQVTVSS”, the “polyreactivity (PSR sort gate)” value is given as “high polyreactivity”.

For “QVQHVESGGGLVQAGGSLRLSCAASGFTFKFYTMGWYRQAPGKERELVAAISRSGGTTYYADSVKGRFTISRDNAKNTVYLQMTSLKPEDTAVYYCAAPRTKYLSKYGYWGQGTQVTVSS”, the “polyreactivity (PSR sort gate)” value is on record as “high polyreactivity”.

The record behind these values is the nanobody polyreactivity screen of Harvey et al. (2022).
